The values below come from US20240209382A1 (PURDUE RESEARCH FOUNDATION, published 2024).

Changes are numbered by the printed parent chain. Names and notes keep the numbering of the source.

Data set [1] deals with the molecule itself. The data set is described as follows: TEM of capsid self-assembly, E. coli, transcript with TMV OAS (only disks without OAS).
Data set [2] deals with the molecule itself. The data set is described as follows: TEM of capsid self-assembly.

B1: wild-type Barley stripe mosaic virus coat protein (BSMV-CP) (other)
chain: MPNVSLTAKGGGHYIEDQWDTQVVEAGVFDDWWVHVEAWNKFLDNLRGINFSVASSRSQVAEYLAALDRDLPADVDRRFAGARGQIGSPNYLPAPKFFRLDKRTIAELTRLSRLTDQPHNNRDIELNRAKRATTNPSPPAQAPSENLTLRDVQPLKDSALHYQYVLIDLQSARLPVYTRKTFERELALEWIIPDAEEA
notes: Capsid subunit expressed in E. coli; many copies assemble into disks or rod-shaped VLPs; Rods of the wild type were obtained from the transcript carrying the TMV origin of assembly (RNA); also called BSMV capsid protein; wildtype BSMV VLPs
Take B1: the binding result in data set [1] is reported as “binds”.

B2: BSMV-CP having a point mutation at residue D101N (other)
chain: B1 chain with D101N
notes: Capsid subunit expressed in E. coli; self-assembles into rod-shaped VLPs; also called BSMV-CP-D101N
Take B2: the binding result in data set [2] is on record as “binds”.

B3: BSMV-CP having a point mutation at residue D101R (other)
chain: B1 chain with D101R
notes: Capsid subunit expressed in E. coli; self-assembles into rod-shaped VLPs; also called BSMV-D101R; BSMV-D101R VLPs
Take B3: the binding result in data set [2] was “binds”.

B4: BSMV-CP having a point mutation at residue E62Q (other)
chain: B1 chain with E62Q
notes: Capsid subunit expressed in E. coli; self-assembles into rod-shaped VLPs; also called BSMV-CP-E62Q
On to B4, for which the binding result in data set [2] is on record as “binds”.

B5: BSMV-CP having point mutations at both residues E62Q and D101N (other)
chain: B1 chain with E62Q, D101N
notes: Capsid subunit expressed in E. coli; self-assembles into rod-shaped VLPs; also called E62Q/D101N; BSMV-CP-E62Q/D101N
B5: in data set [2], the binding result was “binds”.
